This passage reports TLR4-binding capacity (percent, flow cytometry) and level of fluorescence (percent, flow cytometry) results from article PMC7319778.

The assay deals with human toll-like receptor 4 (TLR4) on HEK293 cells expressing human TLR4-MD2-CD14 (human) (UniProt O00206). The assay is described as follows: flow cytometry on cells. (In flow cytometry, cells or beads pass a laser one at a time.)
Chain of UniProt O00206 (O00206 24-839): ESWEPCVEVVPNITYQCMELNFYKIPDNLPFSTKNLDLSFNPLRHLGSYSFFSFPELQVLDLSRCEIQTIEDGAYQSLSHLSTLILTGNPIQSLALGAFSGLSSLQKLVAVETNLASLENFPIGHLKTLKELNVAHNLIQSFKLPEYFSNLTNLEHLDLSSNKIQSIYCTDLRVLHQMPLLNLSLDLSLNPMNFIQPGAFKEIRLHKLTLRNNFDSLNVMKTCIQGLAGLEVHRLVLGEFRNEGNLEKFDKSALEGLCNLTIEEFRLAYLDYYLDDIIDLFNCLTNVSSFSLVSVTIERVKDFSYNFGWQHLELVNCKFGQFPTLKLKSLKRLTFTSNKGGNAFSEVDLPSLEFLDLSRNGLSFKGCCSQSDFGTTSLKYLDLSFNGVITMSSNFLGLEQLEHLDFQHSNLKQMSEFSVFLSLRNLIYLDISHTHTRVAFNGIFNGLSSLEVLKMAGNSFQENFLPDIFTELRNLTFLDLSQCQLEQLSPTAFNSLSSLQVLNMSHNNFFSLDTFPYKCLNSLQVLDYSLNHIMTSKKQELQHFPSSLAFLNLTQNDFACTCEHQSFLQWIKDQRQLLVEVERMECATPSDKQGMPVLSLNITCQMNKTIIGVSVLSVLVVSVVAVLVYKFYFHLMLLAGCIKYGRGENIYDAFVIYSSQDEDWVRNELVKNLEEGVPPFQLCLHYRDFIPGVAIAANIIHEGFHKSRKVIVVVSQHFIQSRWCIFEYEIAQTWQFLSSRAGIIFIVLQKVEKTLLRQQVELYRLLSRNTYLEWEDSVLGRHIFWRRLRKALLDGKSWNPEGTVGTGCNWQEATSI

“mEDA-HPVE7-16 fusion protein (extra domain A from murine fibronectin fused to E7 protein from HPV16)” displayed a TLR4-binding capacity (percent, flow cytometry) of 40.2%.

“hEDA-HPVE7-16 fusion protein (human extra domain A from fibronectin fused to E7 protein from HPV16)” showed a level of fluorescence (percent, flow cytometry) of 19.5%.

“hEDA-HPVE7-16/18 fusion protein (human extra domain A from fibronectin fused to E7 proteins from HPV16 and HPV18)” returned a TLR4-binding capacity (percent, flow cytometry) of 36.9%.
